Source: patent US10100120B2, “Antibody which specifically binds to human CRTH2” (KYOWA HAKKO KIRIN CO., LTD, priority 2015, dated 2018)
Residue numbers refer to the chain shown, from its start.

Columns and labels:
[1] = target: T1, mutated human CRTH2 with amino acid substitution (Homo sapiens, UniProt Q9Y5Y4, L187A/L188A/L189A); test: Epitope analysis using CHO-S cells which express mutated human CRTH2 with amino acid substitution; assay type: binding; conditions: mutant L187A, L188A, and L189A; antibody 10 μg/mL; relative to wild-type = 100%
T1 construct: inserting genes encoding various mutants with amino acid substitution obtained by deleting termination codons; expressed in transfected cells; host or cells: CHO-S cells (Lifetechnologies), transient (phmAG1-MNLinker vector)
T1 sequence (Q9Y5Y4 1-395 L187A/L188A/L189A): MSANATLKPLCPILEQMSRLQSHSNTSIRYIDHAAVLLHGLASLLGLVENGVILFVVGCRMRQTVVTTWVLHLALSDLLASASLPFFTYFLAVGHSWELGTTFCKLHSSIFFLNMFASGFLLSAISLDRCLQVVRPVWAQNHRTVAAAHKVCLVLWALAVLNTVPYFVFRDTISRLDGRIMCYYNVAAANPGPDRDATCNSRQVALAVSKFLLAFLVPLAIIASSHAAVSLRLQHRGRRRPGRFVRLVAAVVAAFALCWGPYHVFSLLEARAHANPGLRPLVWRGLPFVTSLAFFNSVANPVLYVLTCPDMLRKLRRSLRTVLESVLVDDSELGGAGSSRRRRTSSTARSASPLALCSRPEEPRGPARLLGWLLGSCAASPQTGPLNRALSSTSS
Protocol: (§1) A mutant with amino acid substitution expression vector obtained by partially substituting amino acid residues in an extracellular region with other amino acid residues among the amino acid sequences of human CRTH2 was prepared. Specifically, mutant with amino acid substitution expression vectors obtained by substitution of S2A; N4A; T6A and L7A; K8A, P9A, and L10A; P12A, L14A, and EISA; Q16E, R19H, and Q21R; H23A, S24A, and N25A; T26A, S27A, and I28A; D171A, T172A, and I173A; S174A, R175A, and L176A; D177A, G178A, and R179A; 1180A and M181A; Y183A, Y184A, and N185A; L187A, L188A, and L189A; N190A; P191A; G192A; P193A; D194A; R195A; D196A, and T198A; N275A, G277A, and L278A; P276A; P279A and L281A; P280A; or V282A, R283A, and R284A in the amino acid sequences represented by SEQ ID NO: 2 were respectively prepared. It should be noted that the above symbols in the amino acid substitution indicate [single letter code of an amino acid residue before substitution] [substitution position counting from the N terminal] [single letter code of the amino acid reside after substitution].
(§2) Azami-Green tag was added to the intercellular C terminal region by inserting genes encoding various mutants with amino acid substitution obtained by deleting termination codons to the restriction enzyme sites of BamHI and HindIII using phmAG1-MNLinker (MBL) as expression vectors.
(§3) The above-described vectors expressing mutants with amino acid substitution were prepared using 1) a method of entirely synthesizing gene sequences encoding mutants with amino acid substitution and inserting the gene sequences into a vector or 2) a method of performing site-specific mutation from a vector into which DNA which encodes the amino acid sequences of wild-type human CRTH2 represented by SEQ ID NO: 1 was inserted.
(§4) CHO-S cells (Lifetechnologies) were used for preparing mutated human CRTH2 with amino acid substitution expressing cell lines. Free style CHO expression medium (Invitrogen) containing 8 mM L-Glutamine (Invitrogen) was used for subculturing cells and the cells were cultured by shaking under the conditions of 37° C. in the presence of 5% CO2.
(§5) 25 μg of the mutated human CRTH2 with amino acid substitution expression vector prepared in (1) described above was dissolved in 400 μL of Opti-Pro SFM (Invitrogen) and 25 μL of a Freestyle MAX Reagent (Invitrogen) was dissolved in 400 μL of Opti-Pro SFM and each of them were allowed to stand at room temperature for 5 minutes. The two liquids were mixed with each other and allowed to stand at room temperature for 15 minutes. The mixed solution was added to the CHO-S culture solution and the cells were cultured for 24 hours, thereby obtaining cell lines which express mutated human CRTH2 with amino acid substitution.
(§6) The CHO-S cells which express mutated human CRTH2 with amino acid substitution established in (2) were washed with SM, seeded in a 96-well plate such that one well has 2×10^5 cells, and centrifuged at 1700 rpm for 2 minutes. After the supernatant was removed, chLym2, LV0HV1, the anti-human CRTH2 antibody hu19A2 v52, hu8B1 v1, ch3C12, or ch31A5 prepared in Example 9, or a commercially available anti-human CRTH2 antibody BM16 (Santa Cruz) prepared to have a concentration of 10 μg/mL using SM was added thereto to cause a reaction at 4° C. for 1 hour.
(§7) After the cells were washed, goat anti-Human IgG Alexa 647 (Molecular Probes) diluted with SM was added to wells to which chLym2, LV0HV1, hu19A2 v52, hu8B1 v1, ch3C12, or ch31A5 was added and goat anti-Rat IgG Alexa 647 (Molecular Probes) diluted with SM was added to wells to which BM16 was added at a final concentration of 10 μg/mL to cause a reaction at 4° C. for 1 hour.
(§8) After the reaction, the cells were washed and suspended with SM, and the fluorescent intensity was analyzed by flow cytometry (BD Biosciences, FACS CantoII). […]

[2] = target: T2, mutated human CRTH2 with amino acid substitution (Homo sapiens, UniProt Q9Y5Y4, E15A/L14A/P12A); test: as above; assay type: binding; conditions: mutant P12A, L14A, and E15A; antibody 10 μg/mL; relative to wild-type = 100%
T2 construct: inserting genes encoding various mutants with amino acid substitution obtained by deleting termination codons; expressed in transfected cells; host or cells: CHO-S cells (Lifetechnologies), transient (phmAG1-MNLinker vector)
T2 sequence (Q9Y5Y4 1-395 P12A/L14A/E15A): T1 sequence (Q9Y5Y4 1-395 L187A/L188A/L189A) with P12A, L14A, E15A, A187L, A188L, A189L
Protocol: as §1, §2, §3, §4, §5, §6, §7, §8

B1: LV0HV1: humanized Lym2 antibody, VL LV0 (SEQ ID NO: 33), VH HV1 (SEQ ID NO: 51) (antibody, V domains shown)
VH: EVQLVESGGGVVQPGRSLRLSCAASGFTFSNYYMAWVRQAPGKGLEWVATISYDGSSTYYRDSVKGRFTISRDNAKNSLYLQMNSLRAEDTATYYCARHRGYYYSGAGYFDYWGQGTMVTVSS
VL: DIVMTQTPLSLPVTPGESASISCRSSQSLEYSDGYTYLEWYLQKPGQSPQVLIYGVSNRFSGVPDRFSGSGSGTDFTLKISRVEAEDVGVYYCFQATHDPLTFGQGTKLEIK
reactivity against cells expressing mutated human CRTH2 [1]: lost
reactivity against cells expressing mutated human CRTH2 [2]: lost
